Results as given in article PMC11161652, “ASXLs binding to the PHD2/3 fingers of MLL4 provides a mechanism for the recruitment of BAP1 to active enhancers” (Nature Communications, 2024).

B1: PHD2 and PHD3 fingers of human MLL4 (aa 227-324) [human] / ASXL2 peptide (residues 650-670 of ASXL2) [human] (parent complex)
chain 1: ARCAVCEGPGELCDLFFCTSCGHHYHGACLDTALTARKRAGWQCPECKVCQACRKPGNDSKMLVCETCDKGYHTFCLKPPMEELPAHSWKCKACRVCR
chain 2: NRTGARTLADIKAKAQLVKAQ

Variants of: B1
Assay: fluorescence spectroscopy

| Kd | Variant |
| --- | --- |
| 11 µM | chain 2 NRTGAITLADIKAKAQLVKAQ |

Variants of: B1
Assay: fluorescence spectroscopy
Remark: another data set of the same source

| Kd | Variant |
| --- | --- |
| 10 µM | chain 1 ARCAVCEGPGELCDLFFCTSCGHHYHGACLDTALTARKRAGWQCPECKVCQACRKPGNDSKMLVCKTCDKGYHTFCLKPPMEELPAHSWKCKACRVCR |
